Our source for the Ka values is patent US6391637.

The target of experiment [1] is T1, CD40/Fc fusion protein (human, UniProt P25942 21-193).
T1 construct: extracellular domain; also called sCD40/Fc; C40/Fc; not shown: remainder of the human IgG1 Fc region (hinge onwards), joined at a Bgl II site
Description: BIAcore biosensor; CD40/Fc captured on the chip; first experiment; K2 (site 2). Here is the method: (§1) This example illustrates the binding affinities of several different CD40-L constructs. Affinity experiments were conducted by biospecific interaction analysis (BIA) using a biosensor, an instrument that combines a biological recognition mechanism with a sensing device or transducer. An exemplary biosensor is BIAcore™, from Pharmacia Biosensor AB (Uppsala, Sweden; see Fagerstam L.G., Techniques in Protein Chemistry II, ed. J. J. Villafranca, Acad. Press, NY, 1991). BIAcore™ uses the optical phenomenon surface plasmon resonance (Kretschmann and Raether, Z. Naturforschung, Teil. A 23:2135, 1968) to monitor the interaction of two biological molecules. Molecule pairs having affinity constants in the range 10^5 to 10^10 M^-1, and association rate constants in the range of 10^3 to 10^6 M^-1s^-1, are suitable for characterization with BIAcore™.
(§2) The biosensor chips were coated with goat anti-human IgG_1 Fc, which was used to bind CD40/Fc (prepared as described in Example 1) to the chip. The different constructs of CD40-L were then added at increasing concentrations; the chip was regenerated between the different constructs by the addition of sodium hydroxide. Two separate experiments were performed. […] The resultant data were analyzed to determine the affinity and association rate constants of the different CD40-L constructs. […]
Background: SPR reads the build-up and loss of mass on a sensor chip optically.
T1 sequence (P25942 21-193): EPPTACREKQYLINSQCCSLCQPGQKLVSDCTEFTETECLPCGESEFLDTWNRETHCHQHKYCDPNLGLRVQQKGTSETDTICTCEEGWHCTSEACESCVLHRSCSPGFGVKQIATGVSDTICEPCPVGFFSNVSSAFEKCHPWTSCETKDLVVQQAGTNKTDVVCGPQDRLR

Experiment [2] addresses T1, CD40/Fc fusion protein. Put plainly: BIAcore biosensor; CD40/Fc captured on the chip; first experiment; K1 (site 1). Here is the method: as §1, §2
Experiment [3] concerns the target T2, CD40/Fc fusion protein (human, UniProt P25942 21-193). Put plainly: biosensor assay substantially as in Example 22 (CD40/Fc captured on the chip); Affinity Ka.
T2 sequence (P25942 21-193): as above
Experiment [4] deals with T2, CD40/Fc fusion protein. Put plainly: BIAcore biosensor; CD40/Fc captured on the chip; first experiment; K2 (site 2). Here is the method:
as §1, §2

In experiment [5] the target is T2, CD40/Fc fusion protein. Put plainly: BIAcore biosensor; CD40/Fc captured on the chip; first experiment; K1 (site 1). Here is the method: as §1, §2

B1: CD40-L/FC2 soluble human CD40-L/Fc fusion protein (Fc fusion, not shown: a dimerising Fc or GST; small tags and cut ends)
chain: DKIEDERNLHEDFVFMKTIQRCNTGERSLSLLNCEEIKSQFEGFVKDIMLNKEETKKENSFEMQKGDQNPQIAAHVISEASSKTTSVLQWAEKGYYTMSNNLVTLENGKQLTVKRQGLYYIYAQVTFCSNREASSQAPFIASLCLKSPGRFERILLRAANTHSSAKPCGQQSIHLGGVFELQPGASVFVNVTDPSQVSHGTGFTSFGLLKL
notes: also called dimeric human CD40-L; Human Dimer
Regarding B1, the Ka turned out to be 7e+08 M⁻¹ in the experiment with CD40/Fc fusion protein [1] and 1.6e+11 M⁻¹ with CD40/Fc fusion protein [2].

B2: CD40 ligand/zipper domain fusion protein mutant 194.W (ligand, not shown: a dimerising Fc or GST; small tags and cut ends)
chain: MQKGDQNPQIAAHVISEASSKTTSVLQWAEKGYYTMSNNLVTLENGKQLTVKRQGLYYIYAQVTFCSNREASSQAPFIASLWLKSPGRFERILLRAANTHSSAKPCGQQSIHLGGVFELQPGASVFVNVTDPSQVSHGTGFTSFGLLKL
Consider B2, for which the Ka with CD40/Fc fusion protein [3] was 1.8e+09 M⁻¹.

B3: dimeric murine CD40-L (Fc fusion, prepared substantially as in Example 14) (Fc fusion)
chain: DKVEEEVNLHEDFVFIKKLKRCNKGEGSLSLLNCEEMRRQFEDLVKDITLNKEEKKENSFEMQRGDEDPQIAAHVVSEANSNAASVLQWAKKGYYTMKSNLVMLENGKQLTVKREGLYYVYTQVTFCSNREPSSQRPFIVGLWLKPSSGSERILLKAANTHSSSQLCEQQSVHLGGVFELQAGASVFVNVTEASQVIHRVGFSSFGLLKL
As to B3, the Ka was determined as 4e+07 M⁻¹ with CD40/Fc fusion protein [4] and 7e+09 M⁻¹ with CD40/Fc fusion protein [5].
